In patent publication US20150104459A1:

Experiments:
Settings in all cases: remark: other sources report otherwise
[1] = biological target: recombinant soluble homotrimeric HA of A/California/4/09 (H1N1) (Influenza A virus A/California/04/2009 (H1N1)); test: HA microarray, BCC supernatant
[2] = biological target: recombinant soluble homotrimeric HA of A/Japan/305/57 (H2N2) (Influenza A virus A/Japan/305/1957 (H2N2)); test: HA microarray, BCC supernatant
[3] = biological target: recombinant soluble homotrimeric HA of A/Solomon Islands/3/06 (H1N1) (Influenza A virus A/Solomon Islands/3/2006 (H1N1)); test: HA microarray, BCC supernatant
[4] = biological target: recombinant soluble homotrimeric HA of A/chicken/Vietnam/NCVD-016/08 (H5N1) (Influenza A virus A/chicken/Vietnam/NCVD-016/2008 (H5N1)); test: HA microarray, BCC supernatant
[5] = biological target: recombinant soluble homotrimeric HA of A/duck/Yangzhou/02/2005 (H8N4) (Influenza A virus A/duck/Yangzhou/02/2005 (H8N4)); test: HA microarray, BCC supernatant
[6] = biological target: recombinant soluble homotrimeric HA of A/northern shoveler/California/HKWF115/2007 (H6N1) (Influenza A virus A/northern shoveler/California/HKWF115/2007 (H6N1)); test: HA microarray, BCC supernatant
[7] = biological target: recombinant soluble homotrimeric HA, A/chicken/Vietnam/NCVD-016/08 (H5N1) (influenza A virus A/chicken/Vietnam/NCVD-016/2008 (H5N1)); test: microarray, trimeric HA, transfection supernatant
[8] = biological target: recombinant soluble homotrimeric HA, A/duck/Yangzhou/02/2005 (H8N4) (influenza A virus A/duck/Yangzhou/02/2005 (H8N4)); test: microarray, trimeric HA, transfection supernatant
[9] = biological target: recombinant soluble homotrimeric HA, A/northern shoveler/California/HKWF115/2007 (H6N1) (influenza A virus A/northern shoveler/California/HKWF115/2007 (H6N1)); test: microarray, trimeric HA, transfection supernatant
[10] = biological target: recombinant soluble homotrimeric HA of A/Wisconsin/67/05 (H3N2) (Influenza A virus A/Wisconsin/67/2005 (H3N2)); test: HA microarray, BCC supernatant
[11] = biological target: recombinant soluble homotrimeric HA of A/swine/Ontario/01911-2/99 (H4N6) (Influenza A virus A/Swine/Ontario/01911-2/99 (H4N6)); test: HA microarray, BCC supernatant
[12] = biological target: recombinant soluble homotrimeric HA of A/Egypt/3300-NAMRU3/08 (H5N1) (Influenza A virus A/Egypt/3300-NAMRU3/2008 (H5N1)); test: HA microarray, BCC supernatant
[13] = biological target: recombinant soluble homotrimeric HA of A/Indonesia/5/05 (H5N1) (Influenza A virus A/Indonesia/5/2005 (H5N1)); test: HA microarray, BCC supernatant
[14] = biological target: recombinant soluble homotrimeric HA, A/Hong Kong/156/97 (H5N1) (influenza A virus A/Hong Kong/156/97 (H5N1)); test: microarray, trimeric HA, transfection supernatant
[15] = biological target: recombinant soluble homotrimeric HA of A/Netherlands/219/03 (H7N7) (Influenza A virus A/Netherlands/219/03 (H7N7)); test: HA microarray, BCC supernatant
[16] = biological target: recombinant soluble homotrimeric HA of A/Anhui/1/05 (H5N1) (Influenza A virus A/Anhui/1/2005 (H5N1)); test: HA microarray, BCC supernatant
[17] = biological target: recombinant soluble homotrimeric HA of A/Vietnam/1203/04 (H5N1) (Influenza A virus A/Vietnam/1203/2004 (H5N1)); test: HA microarray, BCC supernatant

Row | Binder | Trimeric HA Binding RLU [1] [RLU] | Trimeric HA Binding RLU [2] [RLU] | Trimeric HA Binding RLU [3] [RLU] | Trimeric HA Binding RLU [4] [RLU] | Trimeric HA Binding RLU [5] [RLU] | Trimeric HA Binding RLU [6] [RLU] | Trimeric HA Binding RLU [7] [RLU] | Trimeric HA Binding RLU [8] [RLU] | Trimeric HA Binding RLU [9] [RLU] | Trimeric HA Binding RLU [10] [RLU] | Trimeric HA Binding RLU [11] [RLU] | Trimeric HA Binding RLU [12] [RLU] | Trimeric HA Binding RLU [13] [RLU] | Trimeric HA Binding RLU [14] [RLU] | Trimeric HA Binding RLU [15] [RLU] | Trimeric HA Binding RLU [16] [RLU] | Trimeric HA Binding RLU [17] [RLU]
1 | TCN-548 (5092_P01) (antibody, V domains shown) VH: QVQLQESGPGLVKPSETLSLTCTVSSGPMSDYYWSWIRQPPGKGLEWIGHVSVSHGGRTKSNPSVMSRVTISVETSKNQFSLKLTSVTAADTAVYYCARLNYYDRSGYHSPDGPSNNWFDPWGQGTLVTVSS VL: not shown | 234 | 416 | 283 | 254 | 184 | 314 | 1060 | 5740 | 2100 |  |  |  |  |  |  |  | 
2 | TCN-549 (5092_P04) (antibody, V domains shown) VH: QVQLVQSGAEVKKPGASVKVSCKASGYTFTGYYMHWVRQAPGQGLEWMGWINPNSGDTNYAQKFQGRVTMTRDTSITTAYMELSSLRSDDTAVYYCARDSPYSSSWSFFDYWGQGPLVTVSS VL: not shown | 338 | 387 | 284 | 498 |  |  | 1600 | 9450 | 996 | 30900 |  |  |  |  |  |  | 
3 | TCN-536 (5095_N01) (antibody, V domains shown) VH: QVQLQQWGAGLLKPSETLSLTCAVYGGSFSVSGYYWSWIRQPPGRGLEWIGEISHGGSTNYNPSLKSRVTISVDTTKNQFSLRLSSVTAADTAVYYCARGTDPDTEVYCRVGNCAAFDYWGQGSLVTVSS VL: EIILAQSPGTLSLSPGERATLSCRASQFVSTRSLAWYQQRPGQAPRLLIYGASSRATGIPDRFSGSGSGTDFTLTISRLEPEDFAVYYCQHYGYSPRYAFGQGSKVEIK | 151 | 121 |  | 287 |  |  |  |  |  | 35000 | 79 |  |  |  |  |  | 
4 | TCN-544 (5082_A19) (antibody, V domains shown) VH: QVQLQESGPGLVKPSETLSLTCTVSRGSIGHYFWSWIRQPPGKGLEWIGYISYSGSTKYNPSLRSRVTISVDTSKNQFSLNLNSVTATDTALYYCAREDYDILTGAGPGMEVWGQGTTVTVSS VL: QSMLTQPPSASGTPGQRVTISCSGSSSNIGSNTVNWFKHLPGTAPKLLIYRNDLRPSGVPDRFSGSKSGTSASLAISGLQSEDEADYYCATWDDSLNGFYVFGTGTKVTVL | 281 | 187 | 179 | 272 |  |  | 3070 | 9440 |  |  |  |  |  |  |  |  | 
5 | TCN-537 (3194_D21) (antibody, V domains shown) VH: QVQLQQWGSGLLKPSETLSLTCAVYGGSFRDDYWTWIRQPPGKGLEWIGEINHSGRTNYNPSLKSRVTISVDTSLKQFSLKVISVTAADTAVYYCARGTSHVSRYFDWLPPTNWFDPWGQGTQVTVSS VL: DIVLTQSPGTLSLSPGERATLSCRASQSVSSSYLAWYQQKPGQAPRLVMYGAATRATGIPDRFSGSGSGPDFTLTISRLEPEDFAMYYCQQYGNSPITFGQGTRLEIK | 21900 | 44700 |  | 8620 | 7830 | 5210 | 4480 | 25500 |  | 549 | 19 | 38200 | 14900 | 10700 |  |  | 
6 | TCN-532 (5262_H18) (antibody, V domains shown) VH: QVQLQESGPGLVKPSETLSLTCTVSGGSVSSETYYWSWIRQPPGKGLEWIGYIYYIGNTDYRPSLKSRVTISLDTSKNQFSLKLSSVTAADTAVYYCARGAYYDSSGYPAFYIWGQGTMVTVSS VL: QSVLTQPPSVSGAPGQRVTISCTGSSSNIGSDYDVHWYKQLPGTAPKLLIFGNSNRPSGVPDRFSGSKSGTSASLAITGLQAEDEADYYCQSYDSSLSGFHVFGSGTKVTVL |  | 176 | 327 | 46 |  | 511 |  |  |  | 18000 | 119 |  |  |  | 327 |  | 
7 | TCN-552 (5249_I23) (antibody, V domains shown) VH: QVQVVQSGAEVKKPGSSVRVSCQASGGTFMNYAIIWVRRAPGQGLEWMGGIIPVFPTPNYAQMFQGRVTISTDESRSTSFLELTNLRYEDTAVYYCARRIYHGGNSGFDFWGQGTLVTVSS VL: EIVLTQSPATLSLSPGERATLSCRASQSVGNYLAWYQQKPGQAPRLLIYDSSNRAPGIPARFSGSGSGTDFTLTISSLAPEDFAVYYCQQRSKWPPMYSFGHGTKLEIK | 35300 | 23800 | 39300 | 46200 | 13100 | 38400 | 34500 | 15900 | 43900 | 14800 |  | 40000 | 43600 | 36300 |  | 4160 | 2730
8 | TCN-530 (5248_H10a) (antibody, V domains shown) VH: QVQLVQSGAEVRKPGSSVKVSCKASGGPFMSYAIGWVRQAPGQGLEWMGGINPVFGRPHYAQKFQGRVTIATDDSTKTSYMELSSLTSEDTGMYYCASRYSRSSPGTFESWGQGTLVTVSS VL: EIVMTQFPATLSVSPGERVTLSCRASQSVSNNLAWYQQKPGQPPRLLIYDASTRATGVPAKFSGTGSGTEFTLSISSLQSEDFAVYYCQQYHNWPPSYSFGLGTKLEIK | 46600 | 47000 | 32800 | 48300 |  | 45300 |  |  |  | 36800 |  | 30400 | 39800 |  |  | 11900 | 7150
9 | TCN-563 (5237_B21) (antibody, V domains shown) VH: QVQLAQSGAEVKRPGSSVKVSCTASGGIFRKNAISWVRQAPGQGLEWMGGIIAVFNTANYAQKFQGRVKITADESGNTAYMELSSLRSDDTAVYYCASHPKYFYGSGSYPDFWGQGTLVTVSS VL: QSALTQPRSVSGSPGQSVTISCTGSSSDVGASNSVSWYQQHPGKAPKLVIYDVTERPSGVPHRFSGSKSGNTASLTVSGLQPEDEADYFCCAYGGKYLVVFGGGTKVTVL | 45200 | 6610 | 30000 | 41000 | 46700 | 27300 |  |  |  | 40800 | 4500 | 27500 | 39500 |  | 7520 | 9580 | 4840
